# Data published in paper PMC3743062 (Scientific Reports, 2013).
# B1: NaV1.6 IQ motif (1893-1914), the part of the fusion CaM-(Gly)5-NaV1.6 IQ (domain or fragment)
# chain: EEVSAVVLQRAYRGHLARRGFI
# Target: Calmodulin (CaM), wild type (UniProt P0DP23 1-149)
# Test: crystal structure
binder,measurement,value
B1,binding result,binds
